According to patent US20240287481A1, “POLYMERASES FOR EFFICIENT INCORPORATION OF NUCLEOTIDES WITH 3'-PHOSPHATE AND OTHER 3'-TERMINATORS” (MGI Tech Co., Ltd., priority 2021, published 2024):

What was measured:
[1] = tested on: 3′-phosphate / 2′-phosphate nucleotides; conditions: cited from earlier work
[2] = tested on: 3′ phosphate-extended primer; experiment: 3′ phosphate primer detection with antibodies in a microtiter plate (fluorescence); type: binding; conditions: for ratio to no primer: intensity primer / no primer; for fluorescence intensity: 5 min binding, wash at 60° C.
Procedure: 3′ phosphate blocked nucleotides were incorporated onto the terminal position of a primer and then reacted with unlabeled or labeled antibodies. After a short reaction time of less than 5 minutes, excess antibodies were washed from the reaction well and bound antibodies detected. In the case of unlabeled antibodies, a secondary fluorescently labeled antibody or nanobody was used to bind to the primary IgG before fluorescence detection. In the case of directly labeled primary antibodies, excess un-bound antibodies were washed away and fluorescence in the reaction well measured with a fluorescence plate reader.
Under some binding and wash conditions some non-specific binding of antibody was occurring on the target. […] The interaction of magnesium with the phosphates of the DNA phosphodiester bonds may be suppressing the ability of the antibodies to react with internal phosphates but still allowing recognition of the terminal phosphate. Specific binding in the presence of magnesium was 10-27 fold higher than without primer.

[3] = no primer (non-specific binding), 20 mM Mg buffer
[4] = no primer (non-specific binding), magnesium free buffer
[5] = primer extended with 3′ phosphate nucleotide, 20 mM Mg buffer
[6] = primer extended with 3′ phosphate nucleotide, magnesium free buffer

B1: Taq 475: Taq polymerase variant E520G, K540I, L616A (protein, UniProt P19821 1-832, looked up, variant E520G K540I L616A)
DNA polymerase I, thermostable: MRGMLPLFEPKGRVLLVDGHHLAYRTFHALKGLTTSRGEPVQAVYGFAKSLLKALKEDGDAVIVVFDAKAPSFRHEAYGGYKAGRAPTPEDFPRQLALIKELVDLLGLARLEVPGYEADDVLASLAKKAEKEGYEVRILTADKDLYQLLSDRIHVLHPEGYLITPAWLWEKYGLRPDQWADYRALTGDESDNLPGVKGIGEKTARKLLEEWGSLEALLKNLDRLKPAIREKILAHMDDLKLSWDLAKVRTDLPLEVDFAKRREPDRERLRAFLERLEFGSLLHEFGLLESPKALEEAPWPPPEGAFVGFVLSRKEPMWADLLALAAARGGRVHRAPEPYKALRDLKEARGLLAKDLSVLALREGLGLPPGDDPMLLAYLLDPSNTTPEGVARRYGGEWTEEAGERAALSERLFANLWGRLEGEERLLWLYREVERPLSAVLAHMEATGVRLDVAYLRALSLEVAEEIARLEAEVFRLAGHPFNLNSRDQLERVLFDELGLPAIGKTEKTGKRSTSAAVLGALREAHPIVEKILQYRELTILKSTYIDPLPDLIHPRTGRLHTRFNQTATATGRLSSSDPNLQNIPVRTPLGQRIRRAFIAEEGWLLVALDYSQIEARVLAHLSGDENLIRVFQEGRDIHTETASWMFGVPREAVDPLMRRAAKTINFGVLYGMSAHRLSQELAIPYEEAQAFIERYFQSFPKVRAWIEKTLEEGRRRGYVETLFGRRRYVPDLEARVKSVREAAERMAFNMPVQGTAADLMKLAMVKLFPRLEEMGARMLLQVHDELVLEAPKERAEAVARLAKEVMEGVYPLAVPLEVEVGIGEDWLSAKE
- incorporation of 3′-phosphate nucleotides, in words [1]: does not incorporate 3′-phosphate nucleotides

B2: 18B10: rabbit monoclonal dATP-3P antibody, SEQ ID NO: 39 and 40 (protein)
chain 1: METGLRWLLLVAVLKGVQCQSVEESGGRLVTPGTPLTLTCTVSGIDLSSYAMGWVRQAPGKGLEWIGMISRRGTSYYASWARGRFTISKTSTTVDLKITSPTTEETATYFCARATYDDYTDLNLWGQGTLVTVSSGQPKAPSVFPLAPCCGDTPSSTVTLGCLVKGYLPEPVTVTWNSGTLTNGVRTFPSVRQSSGLYSLSSVVSVTSSSQPVTCNVAHPATNTKVDKTVAPSTCSKPMCPPPELPGGPSVFIFPPKPKDTLMISRTPEVTCVVVDVSQDDPEVQFTWYINNEQVRTARPPLREQQFNSTIRVVSTLPIAHQDWLRGKEFKCKVHNKALPAPIEKTISKARGQPLEPKVYTMGPPREELSSRSVSLTCMINGFYPSDISVEWEKNGKAEDNYKTTPTVLDSDGSYFLYSKLSVPTSEWQRGDVFTCSVMHEALHNHYTQKSISRSPGK
chain 2: MDTRAPTQLLGLLLLWLPGATFAQVLTQTPSSVSAAVGGTVTINCQSSQSVYNNNLLSWYQQKPGQPPKLLIYKTSSLASGVPSRFSGSGSGTQFTLTISGVQCDDAATYYCLGGYYSGSGWYSTFGGGTEVVVKGDPVAPTVLIFPPSADLVATGTVTIVCVANKYFPDVTVTWEVDGTTQTTGIENSKTPQNSADCTYNLSSTLTLTSTQYNSHKEYTCKVTQGTTSVVQSFNRGDC
modifications: dATP-3P
- ratio to no primer ([2]; 20 mM Mg buffer): 27.1
- ratio to no primer ([2]; magnesium free buffer): 3.0
- fluorescence intensity [2, 3]: 8820
- fluorescence intensity [2, 4]: 88385
- fluorescence intensity [2, 5]: 238771
- fluorescence intensity [2, 6]: 265039

B3: 12D6: rabbit monoclonal dTTP-3P antibody, SEQ ID NO: 51 and 52 (protein)
chain 1: METGLRWLLLVAVLKGVQCQSLEESGGRLVTPGTPLTLTCTVSGIDLSSYTITWVRQAPGKGLEWIGYIYVHDGATYYANWAKGRFTISRTSSTTVDLKMTSLTTEDTATYFCASGGGTTYYRIWGPGTLVTVSSGQPKAPSVFPLAPCCGDTPSSTVTLGCLVKGYLPEPVTVTWNSGTLTNGVRTFPSVRQSSGLYSLSSVVSVTSSSQPVTCNVAHPATNTKVDKTVAPSTCSKPMCPPPELPGGPSVFIFPPKPKDTLMISRTPEVTCVVVDVSQDDPEVQFTWYINNEQVRTARPPLREQQFNSTIRVVSTLPIAHQDWLRGKEFKCKVHNKALPAPIEKTISKARGQPLEPKVYTMGPPREELSSRSVSLTCMINGFYPSDISVEWEKNGKAEDNYKTTPTVLDSDGSYFLYSKLSVPTSEWQRGDVFTCSVMHEALHNHYTQKSISRSPGK
chain 2: MDTRAPTQLLGLLLLWLPGATFAQLLTQTPPSVSAPVGGTVTINCQSSQSVYGHNRLSWYQQKPGQPPKLLIYYTSTLASGVPSRFKGSGSGTQFTLTISDLECDDAATYYCAGGYNGNIYAFGGGTEVVVKGDPVAPTVLIFPPAADQVATGTVTIVCVANKYFPDVTVTWEVDGTTQTTGIENSKTPQNSADCTYNLSSTLTLTSTQYNSHKEYTCKVTQGTTSVVQSFNRGDC
modifications: dTTP-3P
- ratio to no primer ([2]; 20 mM Mg buffer): 20.6
- ratio to no primer ([2]; magnesium free buffer): 1.7
- fluorescence intensity [2, 3]: 13278
- fluorescence intensity [2, 4]: 206733
- fluorescence intensity [2, 5]: 273502
- fluorescence intensity [2, 6]: 345210

B4: 2F7: rabbit monoclonal dCTP-3P antibody, SEQ ID NO: 43 and 44 (protein)
chain 1: METGLRWLLLVAVLKGVQCQSVEESGGRLVTPGTPLTLTCTVSGFSLSNYAIIWVRQAPGEGLEYIGFISRTGSINYANWAKGRFTISKTSTTVDLKITSPTTEDTATYFCARTDYFANGDIWGPGTLVTVSSGQPKAPSVFPLAPCCGDTPSSTVTLGCLVKGYLPEPVTVTWNSGTLTNGVRTFPSVRQSSGLYSLSSVVSVTSSSQPVTCNVAHPATNTKVDKTVAPSTCSKPMCPPPELPGGPSVFIFPPKPKDTLMISRTPEVTCVVVDVSQDDPEVQFTWYINNEQVRTARPPLREQQFNSTIRVVSTLPIAHQDWLRGKEFKCKVHNKALPAPIEKTISKARGQPLEPKVYTMGPPREELSSRSVSLTCMINGFYPSDISVEWEKNGKAEDNYKTTPTVLDSDGSYFLYSKLSVPTSEWQRGDVFTCSVMHEALHNHYTQKSISRSPGK
chain 2: MDTRVPTQLLGLLLLWLPGARCADVVMTQTPASVSEPVGGTVTIKCQASQSINSWLSWYQQKPGQPPKLLIYAASTLASGVPSRFKGSGSGTQFTLTISDLECADAATYFCQSYDMIVNHGAPFGGGTGVVVSGDPVAPTVLIFPPAADQVATGTVTIVCVANKYFPDVTVTWEVDGTTQTTGIENSKTPQNSADCTYNLSSTLTLTSTQYNSHKEYTCKVTQGTTSVVQSFNRGDC
modifications: dCTP-3P
- ratio to no primer ([2]; 20 mM Mg buffer): 16.2
- ratio to no primer ([2]; magnesium free buffer): 8.8
- fluorescence intensity [2, 3]: 11357
- fluorescence intensity [2, 4]: 19124
- fluorescence intensity [2, 5]: 183669
- fluorescence intensity [2, 6]: 167623
